Measured values published in article PMC4981287.
pKd: −log10 of the molar value.

Tests used:
[1] = target: HiLyteFluor488-labeled amyloid-β(1-40) fibrils (UniProt P05067)
[2] = target: HiLyteFluor488-labeled amyloid-β(1-40) fibrils (UniProt P05067); assay: confocal two-color coincidence detection
[3] = target: HiLyteFluor488-labeled amyloid-β(1-40) oligomers formed from the disaggregation of fibrils (UniProt P05067); assay: confocal two-color coincidence detection
Chain of HiLyteFluor488-labeled amyloid-β(1-40) oligomers formed from the disaggregation of fibrils (P05067 672-711): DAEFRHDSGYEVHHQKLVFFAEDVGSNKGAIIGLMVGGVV

Chain of HiLyteFluor488-labeled amyloid-β(1-40) fibrils (P05067 672-711): as above

- pKd [1]: 5.92
Substance: AlexaFluor647-labeled αB-crystallin (from UniProt P02511 1-175) (natural protein)
- koff [2]: 4.4e-05 s⁻¹
- half-time for dissociation [3]: 17 h
- stoichiometry N (αB-crystallin molecule per Aβ monomer) [3]: 1
